According to article doi:10.1101/2024.02.06.579105:

Columns and labels:
Assay in all cases: SEC
[1] = biological target: MalE-DmxA^E626A (M. xanthus)
[2] = biological target: MalE-DmxA^GAF×2 (M. xanthus)
[3] = biological target: MalE-DmxA^R615A (M. xanthus)
[4] = biological target: MalE-DmxA^WT (M. xanthus)

A stoichiometry N [1] of 2 was found for MalE-DmxA^E626A (domain or fragment) in this work.
A stoichiometry N [2] of 2 was found for MalE-DmxA^GAF×2 (domain or fragment) in this work.
A stoichiometry N [3] of 2 was found for MalE-DmxA^R615A (domain or fragment) in this work.
A stoichiometry N [4] of 2 was found for MalE-DmxA^WT (domain or fragment) in this work.
